Measured values as given in article PMC3279363.
Values joined by “and” are separate entries in the source; they are usually repeats but may differ in a detail not shown here. Identical values can stand only once.

Target: T1, nitrated major birch pollen allergen Bet v 1.0101 (Betula verrucosa), P15494
T1 chain: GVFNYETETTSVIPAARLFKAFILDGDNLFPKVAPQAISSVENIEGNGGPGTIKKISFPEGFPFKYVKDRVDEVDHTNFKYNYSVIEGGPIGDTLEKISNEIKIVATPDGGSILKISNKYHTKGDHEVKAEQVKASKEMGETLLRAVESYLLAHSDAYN
Test: SEC + other: Western blot; data not shown; high performance size exclusion chromatography and Western blot analysis of Bet v 1 nitro
Conditions: remark: other sources report otherwise

B1: nitrated major birch pollen allergen Bet v 1.0101, P15494 2-160 (natural protein)
chain: T1 chain
modifications: here or on the partner: nitrotyrosine: 58.1% of all tyrosine groups within one protein molecule were nitrated (tetranitromethane); all tyrosine residues nitrated to some extent; nitrotyrosine: 58.1% of all tyrosine groups within one protein molecule were nitrated (tetranitromethane); all tyrosine residues nitrated to some extent
For B1, the stoichiometry N was 2 and 3.
